This is an account of results in patent US20170010270A1 (Chugai, published 2017).

Test [1] has as its target T1, GPC3 peptide, amino acid position 481-510 (SEQ ID NO: 25) (human).
T1 construct: synthetic 30-residue peptide of GPC3
T1 peptide: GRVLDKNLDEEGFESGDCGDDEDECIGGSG
Briefly: ELISA on immobilised peptide. The method, then:
(§1) In order to identify more detailed epitopes for the antibodies, the amino acid sequence of GPC3 was divided into peptides of 30 residues containing 10-residue overlaps, and the corresponding peptides were synthesized (SEQ ID NOs: 1 to 29 in Table 2). Each peptide thus synthesized was dissolved at a concentration of 1 mg/mL in dimethyl sulfoxide and then diluted to 1 μg/mL with PBS. The diluted peptide solution was added at 70 μL/well to a 96-well plate and immobilized thereon at room temperature for 1 hour. After removal of unimmobilized peptides, 20% Blocking-one (Nacalai Tesque, Inc.) was added thereto as a blocking buffer solution at 200 μL/well, and the plate was blocked overnight. After removal of the blocking buffer solution, each well was washed with TBS-T three times, and each antibody diluted to 2 μg/mL with a blocking buffer was then added thereto at 70 μL/well. One hour later, the antibody was removed, and each well was washed three times by the addition of TBS-T at 200 μL/well. An HRP-bound anti-mouse antibody was added at 70 μL/well to each well and reacted therewith for 1 hour. After removal of the antibody, each well was washed with 200 μL/well of TBS-T three times, and a chromogenic reagent ABTS Peroxidase Substrate System (1 component, KPL, Kirkegaard & Perry Laboratories, Inc.) was then added thereto at 70 μL/well and reacted at room temperature for […] to develop color. The reaction was terminated by the addition of 1% SDS at 70 μL/well, and the absorbance at 405 nm was measured using a plate reader.

Test [2] deals with T2, GPC3 peptide, amino acid position 551-580 (SEQ ID NO: 29) (human).
T2 construct: synthetic 30-residue peptide of GPC3
T2 peptide: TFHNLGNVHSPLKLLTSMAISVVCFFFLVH
Briefly: ELISA on immobilised peptide. The method, then:
as §1

For test [3], the target named is T3, GPC3 peptide, amino acid position 321-350 (SEQ ID NO: 17) (human).
T3 construct: synthetic 30-residue peptide of GPC3
T3 peptide: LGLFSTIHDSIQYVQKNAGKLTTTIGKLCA
The test is described as follows: ELISA on immobilised peptide. The method, then:
as §1

Test [4] addresses T4, GPC3 peptide, amino acid position 141-170 (SEQ ID NO: 8) (human).
T4 construct: synthetic 30-residue peptide of GPC3
T4 peptide: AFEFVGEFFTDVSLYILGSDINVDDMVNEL
Briefly: ELISA on immobilised peptide. The method, then: as §1
In general terms: An ELISA detects its analyte on a solid surface through an enzyme-linked reagent.

Test [5] has as its target T5, GPC3 peptide, amino acid position 521-550 (SEQ ID NO: 27) (human).
T5 construct: synthetic 30-residue peptide of GPC3
T5 peptide: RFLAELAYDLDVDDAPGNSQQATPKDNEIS
The test is described as follows: ELISA on immobilised peptide. The method, then: as §1

Test [6] concerns the target T6, GPC3 peptide, amino acid position 1-30 (SEQ ID NO: 1) (human).
T6 construct: synthetic 30-residue peptide of GPC3
T6 peptide: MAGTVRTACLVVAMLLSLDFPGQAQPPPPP
The test is described as follows: ELISA on immobilised peptide. The method, then: as §1

Test [7] has as its target T7, GPC3 peptide, amino acid position 381-410 (SEQ ID NO: 20) (human).
T7 construct: synthetic 30-residue peptide of GPC3
T7 peptide: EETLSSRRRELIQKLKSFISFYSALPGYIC
Briefly: ELISA on immobilised peptide. The method, then: as §1

The target of test [8] is T8, GPC3 peptide, amino acid position 21-50 (SEQ ID NO: 2) (human).
T8 construct: synthetic 30-residue peptide of GPC3
T8 peptide: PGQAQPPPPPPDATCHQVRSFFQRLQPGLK
Briefly: ELISA on immobilised peptide. The procedure: as §1

For test [9], the target named is T9, GPC3 peptide, amino acid position 81-110 (SEQ ID NO: 5) (human).
T9 construct: synthetic 30-residue peptide of GPC3
T9 peptide: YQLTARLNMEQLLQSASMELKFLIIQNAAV
Briefly: ELISA on immobilised peptide. The method, then:
as §1

In test [10] the target is T10, GPC3 peptide, amino acid position 241-270 (SEQ ID NO: 13) (human).
T10 construct: synthetic 30-residue peptide of GPC3
T10 peptide: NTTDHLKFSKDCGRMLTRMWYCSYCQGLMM
The test is described as follows: ELISA on immobilised peptide. The method, then: as §1

The target in test [11] is T11, GPC3 peptide, amino acid position 281-310 (SEQ ID NO: 15) (human).
T11 construct: synthetic 30-residue peptide of GPC3
T11 peptide: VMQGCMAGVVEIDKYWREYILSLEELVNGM
Briefly: ELISA on immobilised peptide. The procedure:
as §1

Test [12] concerns the target T12, GPC3 peptide, amino acid position 161-190 (SEQ ID NO: 9) (human).
T12 construct: synthetic 30-residue peptide of GPC3
T12 peptide: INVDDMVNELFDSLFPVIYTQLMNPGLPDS
The test is described as follows: ELISA on immobilised peptide. The procedure:
as §1

Test [13] deals with T13, GPC3 peptide, amino acid position 361-390 (SEQ ID NO: 19) (human).
T13 construct: synthetic 30-residue peptide of GPC3
T13 peptide: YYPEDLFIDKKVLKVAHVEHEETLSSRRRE
Briefly: ELISA on immobilised peptide. The method, then: as §1

The target of test [14] is T14, GPC3 peptide, amino acid position 401-430 (SEQ ID NO: 21) (human).
T14 construct: synthetic 30-residue peptide of GPC3
T14 peptide: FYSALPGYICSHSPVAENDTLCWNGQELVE
The test is described as follows: ELISA on immobilised peptide. The procedure:
as §1

The target in test [15] is T15, GPC3 peptide, amino acid position 221-250 (SEQ ID NO: 12) (human).
T15 construct: synthetic 30-residue peptide of GPC3
T15 peptide: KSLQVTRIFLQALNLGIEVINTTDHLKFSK
Briefly: ELISA on immobilised peptide. The procedure: as §1

In test [16] the target is T16, GPC3 peptide, amino acid position 261-290 (SEQ ID NO: 14) (human).
T16 construct: synthetic 30-residue peptide of GPC3
T16 peptide: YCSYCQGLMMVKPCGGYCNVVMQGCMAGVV
Briefly: ELISA on immobilised peptide. The method, then: as §1

Test [17] concerns the target T17, GPC3 peptide, amino acid position 421-450 (SEQ ID NO: 22) (human).
T17 construct: synthetic 30-residue peptide of GPC3
T17 peptide: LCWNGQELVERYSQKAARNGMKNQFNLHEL
The test is described as follows: ELISA on immobilised peptide. The method, then: as §1

The target of test [18] is T18, GPC3 peptide, amino acid position 101-130 (SEQ ID NO: 6) (human).
T18 construct: synthetic 30-residue peptide of GPC3
T18 peptide: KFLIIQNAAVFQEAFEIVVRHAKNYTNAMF
The test is described as follows: ELISA on immobilised peptide. The method, then: as §1

The target of test [19] is T19, GPC3 peptide, amino acid position 341-370 (SEQ ID NO: 18) (human).
T19 construct: synthetic 30-residue peptide of GPC3
T19 peptide: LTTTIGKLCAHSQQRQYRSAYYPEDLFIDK
Briefly: ELISA on immobilised peptide. The method, then:
as §1

Test [20] has as its target T20, GPC3 peptide, amino acid position 201-230 (SEQ ID NO: 11) (human).
T20 construct: synthetic 30-residue peptide of GPC3
T20 peptide: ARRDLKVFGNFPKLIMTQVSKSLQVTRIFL
Briefly: ELISA on immobilised peptide. The method, then:
as §1

For test [21], the target named is T21, AW2, C-terminally His-tagged recombinant product of positions 1 to 196 of GPC3 (human, UniProt P51654 25-196).
T21 construct: Expressed in CHO cells; cell pellets used in reducing Western blot; Construct is stated from position 1; also called AW2 (1-196); not shown: C-terminal His tag
T21 sequence (P51654 25-196): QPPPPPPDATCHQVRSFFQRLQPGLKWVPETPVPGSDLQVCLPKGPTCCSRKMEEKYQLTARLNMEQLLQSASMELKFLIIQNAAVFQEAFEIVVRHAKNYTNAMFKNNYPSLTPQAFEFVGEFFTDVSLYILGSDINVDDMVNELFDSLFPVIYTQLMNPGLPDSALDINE
The test is described as follows: Western blot of CHO cell pellets, reducing.

The target in test [22] is T22, AW3, C-terminally His-tagged recombinant product of positions 1 to 218 of GPC3 (human, UniProt P51654 25-218).
T22 construct: Expressed in CHO cells; cell pellets used in reducing Western blot; Construct is stated from position 1; not shown: C-terminal His tag
T22 sequence (P51654 25-218): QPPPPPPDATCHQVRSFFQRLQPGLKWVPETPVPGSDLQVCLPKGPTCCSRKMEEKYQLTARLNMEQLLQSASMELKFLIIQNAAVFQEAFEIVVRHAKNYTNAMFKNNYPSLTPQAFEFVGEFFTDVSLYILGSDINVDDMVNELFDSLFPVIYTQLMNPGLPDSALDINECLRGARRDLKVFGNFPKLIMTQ
The test is described as follows: Western blot of CHO cell pellets, reducing. Background: A western blot detects proteins with antibodies after separation by electrophoresis.

B1: GT607 antibody (antibody, IgG1, V domains shown)
VH: EVQLVESGGDVVRPGGSLKLSCAASGFTFSSYGMSWVRQLPDKRLEWVASVGNGGSYRYYPENLKGRFTISRDNTKNTLYLQISGLKSEDTAIYYCARRGAFPYFDVWGAGTTVTVSS
VL: QIVLTQSPAIMSASPGEKVTLACSASSSVTYMHWYQQKSGTSPKRWIYETSKLASGVPPRFSGSGSGTSYSLTISTMEAEDAATYYCQQWSSNPLTFGAGTKLELKR
Consider B1, for which the binding result in [1], in test [2], in [3], in test [4], in test [5] and in [6] was “no binding (tested: 2 µg/mL)” in each case. Moreover, the binding result in test [7], in [8], in [9], in [10], in test [11] and in test [12] was “no binding (tested: 2 µg/mL)” throughout. Besides, the binding result in test [13], in [14], in test [15], in test [16], in test [17] and in test [18] was “no binding (tested: 2 µg/mL)” in each case. In addition, the binding result in test [19] is “no binding (tested: 2 µg/mL)”; in test [20], “no binding (tested: 2 µg/mL)”; in test [21], “no binding”; in [22], “no binding”.

B2: GT165 antibody (antibody, IgG1, V domains shown)
VH: QVQLQQSGAELVGPGASVKISCKAFGYTFTNHHINWVKQRPGQGLDWIGYINPYNDYTNYNQKFKGKATLTVDKSSSTAYMELSSLTSEDSAVYYCARSDPAWFAYWGQGTLVTVSA
VL: DIQMTQSPSSLSASLGGKVTITCKASQDINKNIAWYQHKPGKGPRLLIWYTYTLQPGIPSRFSGSGSGRDYSFSISNLEPEDIATYYCLQYDNLPFTFGTGTKLEIKR
On to B2, for which the binding result in [1], in test [2], in [3], in test [4], in [5] and in [6] was “no binding (tested: 2 µg/mL)” each time. For the same molecule, the binding result in test [7], in test [8], in [9], in test [10], in test [11] and in test [12] was “no binding (tested: 2 µg/mL)” in each case. In addition, the binding result in test [13], in test [14], in [15], in test [16], in test [17] and in test [18] was “no binding (tested: 2 µg/mL)” throughout. Moreover, the binding result was “no binding (tested: 2 µg/mL)” in test [19], “no binding (tested: 2 µg/mL)” in test [20], “no binding” in test [21] and “no binding” in [22].

B3: GT114 antibody (antibody, IgG1, V domains shown)
VH: DVQLQESGPGLVKPSQSLSLTCTVTGYSITSDSAWNWIRQFPGNKLEWMAYIMYSGITSYNPSLKSRISITRDTAKNQFFLQLNSVTTEDSATYYCSRGYWYFDVWGAGTTVTVSS
VL: QIVLTQSPAIMSASLGEEITLTCSASSSVSYMHWYQQKSGTSPKLLIYSTSILASGVPSRFSGSGSGTFYSLTISSVEAEDAADYYCLQWITYRTFGGGTKLEIKR
As to B3, the binding result in test [1], in test [2], in test [3], in [4], in [5] and in test [6] was “no binding (tested: 2 µg/mL)” each time. For the same molecule, the binding result in [7], in test [8], in [9], in test [10], in [11] and in test [12] was “no binding (tested: 2 µg/mL)” each time. Besides, the binding result in [13], in test [14], in [15], in test [16], in [17] and in test [18] was “no binding (tested: 2 µg/mL)” in each case. The binding result in test [19] was “no binding (tested: 2 µg/mL)”; in test [20], “no binding (tested: 2 µg/mL)”; in test [21], “no binding”; in [22], “no binding”.
